Laboratory results from IntAct's records for PubMed 18509061.

B1: Histone deacetylase 7 (Mus musculus), Q8C2B3-1 (parent)
chain: MHSPGAGCPALQPDTPGSQPQPMDLRVGQRPTVEPPPEPALLTLQHPQRLHRHLFLAGLHQQQRSAEPMRLSMDPPMPELQGGQQEQELRQLLNKDKSKRSAVASSVVKQKLAEVILKKQQAALERTVHPSSPSIPYRTLEPLDTEGAARSVLSSFLPPVPSLPTEPPEHFPLRKTVSEPNLKLRYKPKKSLERRKNPLLRKESAPPSLRRRPAETLGDSSPSSSSTPASGCSSPNDSEHGPNPALGSEADGDRRTHSTLGPRGPVLGNPHAPLFLHHGLEPEAGGTLPSRLQPILLLDPSVSHAPLWTVPGLGPLPFHFAQPLLTTERLSGSGLHRPLNRTRSEPLPPSATASPLLAPLQPRQDRLKPHVQLIKPAISPPQRPAKPSEKPRLRQIPSAEDLETDGGGVGPMANDGLEHRESGRGPPEGRGSISLQQHQQVPPWEQQHLAGRLSQGSPGDSVLIPLAQVGHRPLSRTQSSPAAPVSLLSPEPTCQTQVLNSSETPATGLVYDSVMLKHQCSCGDNSKHPEHAGRIQSIWSRLQERGLRSQCECLRGRKASLEELQSVHSERHVLLYGTNPLSRLKLDNGKLTGLLAQRTFVMLPCGGVGVDTDTIWNELHSSNAARWAAGSVTDLAFKVASRELKNGFAVVRPPGHHADHSTAMGFCFFNSVAIACRQLQQHGKASKILIVDWDVHHGNGTQQTFYQDPSVLYISLHRHDDGNFFPGSGAVDEVGTGSGEGFNVNVAWAGGLDPPMGDPEYLAAFRIVVMPIAREFAPDLVLVSAGFDAAEGHPAPLGGYHVSAKCFGYMTQQLMNLAGGAVVLALEGGHDLTAICDASEACVAALLGNKVDPLSEESWKQKPNLSAIRSLEAVVRVHRKYWGCMQRLASCPDSWLPRVPGADAEVEAVTALASLSVGILAEDRPSERLVEEEEPMNL
partner: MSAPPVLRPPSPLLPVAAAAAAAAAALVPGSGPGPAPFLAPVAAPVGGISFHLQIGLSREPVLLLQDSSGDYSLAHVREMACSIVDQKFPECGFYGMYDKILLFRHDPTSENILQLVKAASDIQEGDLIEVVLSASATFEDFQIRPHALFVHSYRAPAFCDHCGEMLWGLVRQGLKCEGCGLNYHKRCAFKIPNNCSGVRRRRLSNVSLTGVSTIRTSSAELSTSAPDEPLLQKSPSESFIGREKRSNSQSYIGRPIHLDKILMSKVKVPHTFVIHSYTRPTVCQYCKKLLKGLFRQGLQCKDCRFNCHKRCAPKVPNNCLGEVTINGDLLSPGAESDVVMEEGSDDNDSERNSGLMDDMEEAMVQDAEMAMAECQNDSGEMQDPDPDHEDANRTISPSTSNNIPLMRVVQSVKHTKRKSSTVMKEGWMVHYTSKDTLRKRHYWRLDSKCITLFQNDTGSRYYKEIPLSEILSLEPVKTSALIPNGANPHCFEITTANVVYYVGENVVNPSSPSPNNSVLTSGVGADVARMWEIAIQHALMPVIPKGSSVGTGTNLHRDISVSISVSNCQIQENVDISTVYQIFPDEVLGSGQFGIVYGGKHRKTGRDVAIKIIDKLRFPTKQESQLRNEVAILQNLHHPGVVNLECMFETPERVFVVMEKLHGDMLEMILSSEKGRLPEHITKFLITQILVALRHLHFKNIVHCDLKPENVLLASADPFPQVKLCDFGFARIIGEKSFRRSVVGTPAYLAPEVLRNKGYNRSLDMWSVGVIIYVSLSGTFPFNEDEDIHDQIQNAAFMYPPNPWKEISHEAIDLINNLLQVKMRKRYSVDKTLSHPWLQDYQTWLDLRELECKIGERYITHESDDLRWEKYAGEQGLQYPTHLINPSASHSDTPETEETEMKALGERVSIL

Variants of: B1
Conditions: with kpcd1_human PRKD1, Q15139

Row | Variant | effect of a mutation on the interaction
1 | S178A;S344A;S479A | increasing interaction strength
